Consider six molecules from patent US10660939.

Assay [1] deals with human melanocortin receptor-4 (human) (UniProt P32245). As to the kind of experiment: competition with Eu-NDP-α-MSH, hMC4r HEK-293 membranes.
The target is the same in assay [2]. As to the kind of experiment: cell-based or functional assay.
The target of assay [3] is human melanocortin receptor-4 (human), P32245. Description: competition with [I125]-NDP-α-MSH, hMC4r HEK-293 membranes. To be noted: remark: other sources report otherwise.
Assay [4] has as its target human melanocortin receptor-4 (human) (UniProt P32245). The description is as above.

Positions of bridges follow the written chain, without caps; N, C: chain ends. Non-standard residues stand in square brackets, D forms with d. Dab = NCC[C@H](N)C(=O)O

human melanocortin receptor-4 (human), sequence (P32245 whole entry): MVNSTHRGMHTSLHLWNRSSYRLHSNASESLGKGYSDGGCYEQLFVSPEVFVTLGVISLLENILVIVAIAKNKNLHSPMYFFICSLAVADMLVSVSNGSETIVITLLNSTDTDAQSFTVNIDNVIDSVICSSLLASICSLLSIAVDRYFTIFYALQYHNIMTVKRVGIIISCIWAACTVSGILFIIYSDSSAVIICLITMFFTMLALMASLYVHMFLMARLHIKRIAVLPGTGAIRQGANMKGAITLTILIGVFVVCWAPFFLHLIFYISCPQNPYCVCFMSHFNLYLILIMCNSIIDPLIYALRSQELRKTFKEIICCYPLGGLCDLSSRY
human melanocortin receptor-4 (human), P32245, sequence (P32245 whole entry): as above

B1: Peptide No. 127 (peptide)
peptide: RXXFRWX
modifications: N-terminal Ac; hGlu 2 (X); Dab 3 (X); D-Phe 4; Dab 7 (X); cyclo(hGlu 2-Dab 7); C-terminal NH2
What is called Ki is the equilibrium dissociation constant of an inhibitor or competing ligand from its target. Low readings indicate a stronger hold on the target, high ones a looser hold on the target. The molecule B1 yielded a Ki in assay [1] of 2 nM. Further, in assay [2], the EC50 (cAMP) worked out at 0.06 nM and the intrinsic activity (cAMP, NDP-α-MSH is 100%) stood at 98%.

B2: Peptide No. 129 (peptide)
peptide: RXXFRWX
modifications: N-terminal Ac; Dab 2 (X); Dab 3 (X); D-Phe 4; hGlu 7 (X); cyclo(Dab 2-hGlu 7); C-terminal NH2
Turning to B2, in assay [1], the Ki turned out to be 4 nM. Also, in assay [2], the EC50 (cAMP) worked out at 0.065 nM and the intrinsic activity (cAMP, NDP-α-MSH is 100%) was 96%. In assay [3], Ac-RD[Dab][dF]RWK-OH (lactam 2-7) [Peptide No. 164] displayed a Ki of 57 nM. The same measure, in the same setting: the value for Ac-RD[Dab][dF]RWK-NH2 (lactam 2-7) [Peptide No. 163] was 4 nM.

B3: Peptide No. 144 (peptide)
peptide: RXXFRWX
modifications: N-terminal Ac; hGlu 2 (X); Dab 3 (X); D-Phe 4; Dab 7 (X); cyclo(hGlu 2-Dab 7); C-terminal OH
B3 had a Ki in assay [4] of 45 nM.

B4: Peptide No. 136 (peptide)
peptide: RXXFRWX
modifications: N-terminal Ac; Dab 2 (X); Dab 3 (X); D-Phe 4; hGlu 7 (X); cyclo(Dab 2-hGlu 7); C-terminal OH
Turning to B4, the Ki in assay [4] was 35 nM.
